Reference: patent US20240076343A1 (CEPHALON, published 2024)
Substitutions are numbered along the chain they refer to.

B1: OMC.2.C6-hIgG4 (antibody, V domains shown)
VH: EVQLLESGGGLVQPGGSLRLSCTASGFTFSSYEMQWVRQAPGKGLEWVLGITSSSSHIFYADSVKGRFTVSRDNSKNTLYLQMNSLRAEDTAVYYCTKDLNSYYGLDVWGQGTTVTVSS
VL: QSVMTQPPSASGTPGQRVTISCSGSTSNLGNNYVSWYQHLPGTAPKLLIYGNDQRPSGVPDRFSGSKSGTSASLAISGLQSDDEADYYCSSWDASLNVWVFGGGTKLTVLG
B2: Anti-PD-1 clone J110 hIgG1 (antibody, V domains shown)
VH: DVQLQESGPGLVKPSQSLSLTCTVTGHSITSDYAWNWIRQFPGDKLEWMGYISYSGYTTYNPSLKSRVSITRDTSKNQFFLQLNSVTTEDTATYFCARDLDYGPWFAYWGQGTLVTVSA
VL: DIQMTQSPASLSASVGETVTLTCRASENIHNYLAWYQQKQGKSPQLLVYNVKTLADGVPSRFSGSGSGTQYSLKINSLQPEDFGSYYCQHFWSSPWTFGGGTKVEIKR
B3: 2H7-hIgG4-LE (antibody)
heavy: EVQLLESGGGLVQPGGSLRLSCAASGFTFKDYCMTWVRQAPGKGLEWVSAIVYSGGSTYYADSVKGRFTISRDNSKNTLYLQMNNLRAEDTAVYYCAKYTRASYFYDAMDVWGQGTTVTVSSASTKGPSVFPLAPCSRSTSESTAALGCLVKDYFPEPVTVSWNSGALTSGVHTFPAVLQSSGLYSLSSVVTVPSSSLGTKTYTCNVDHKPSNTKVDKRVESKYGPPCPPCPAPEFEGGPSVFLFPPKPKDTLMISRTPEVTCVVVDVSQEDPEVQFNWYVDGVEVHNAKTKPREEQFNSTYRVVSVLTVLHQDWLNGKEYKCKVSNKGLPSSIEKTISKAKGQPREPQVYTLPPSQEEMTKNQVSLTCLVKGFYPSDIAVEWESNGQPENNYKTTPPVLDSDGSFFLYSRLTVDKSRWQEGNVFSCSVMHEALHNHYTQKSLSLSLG
light: EIVLTQSPGTLSLSPGERATLSCRASQSIGKSFLAWYQQKPGQAPRLLIYDASTRAADIPARFSGSGSGTDFTLTISSLEPEDFAVYYCQQYYDWPPLSFGGGTKVEIKRTVAAPSVFIFPPSDEQLKSGTASVVCLLNNFYPREAKVQWKVDNALQSGNSQESVTEQDSKDSTYSLSSTLTLSKADYEKHKVYACEVTHQGLSSPVTKSFNRGEC
B4: 2H7-hIgG4-LAGA (antibody)
heavy: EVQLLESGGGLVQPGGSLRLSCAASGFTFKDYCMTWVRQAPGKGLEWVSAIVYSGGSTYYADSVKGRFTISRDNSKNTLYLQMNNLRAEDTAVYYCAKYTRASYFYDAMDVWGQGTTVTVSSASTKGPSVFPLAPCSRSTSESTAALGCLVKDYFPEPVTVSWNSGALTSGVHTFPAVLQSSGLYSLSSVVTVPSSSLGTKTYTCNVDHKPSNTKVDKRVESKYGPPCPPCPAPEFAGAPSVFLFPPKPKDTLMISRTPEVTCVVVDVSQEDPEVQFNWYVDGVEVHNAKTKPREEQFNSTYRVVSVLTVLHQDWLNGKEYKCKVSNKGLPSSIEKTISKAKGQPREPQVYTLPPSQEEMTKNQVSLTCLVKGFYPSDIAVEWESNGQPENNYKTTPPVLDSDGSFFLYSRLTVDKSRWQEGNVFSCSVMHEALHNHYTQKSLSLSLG
light: B3 light
B5: OMC476pG10-hIgG4 (antibody, V domains shown)
VH: DVQLVESGGGVVRPGGSLRLSCAASGFTFSIYAMSWVRQAPGEGLEWVSHISASGGSTYYADSVKGRFAISRDNSKNTLYLQMNSLRAEDTAVYYCTTNLGSDYWGLGTLVTVSS
VL: QSVLTQPPSASGTPGQRVTISCSGSYSDIGTNYVYWYQQLPGTAPKLLIFATDRRPSGVPDRFSGSKSGTSASLAISGLQSEDEADYYCGTWDDSLNVWVFGGGTKLTVLG
B6: OMC476pH10-hIgG4 (antibody, V domains shown)
VH: B5 VH with M34V
VL: B5 VL
B7: A2-hIgG4 (antibody, V domains shown)
VH: DVQLVESGGGLVQPGGSLRLSCAASGFTFDISAMSWVRQAPGKGLEWVSTISGSAYSTYYADSVKGRFTISRDNSKSTLYLQMNSLRAEDTAVYYCAREIFSDYWGLGTLVTVSS
VL: QSVLTQPPSASGTPGQRVTISCSGSTSNIGRESVYWYQQLPGTAPKLLIYSNVQRPSGAPNRFSGSKSGTSASLAISGLQSEDEADYYCGTWDDSLNGWVFGGGTKLTVLG
B8: OMC476pE4-hIgG4 (antibody, V domains shown)
VH: DVQLVESGGGVVRPGESLRLSCAASGFTFSTDAMGWVRQAPGEGLEWVSLISGSGYSTYYADSVKGRFTISRDNSKNTLYLQMNSLTAEDTAVYYCAKNSLAFFDYWGLGTLVTVSS
VL: B7 VL with S25G, T26S, Y35N, N52T, V53D, Q54R, A59V, N61D, D94N, S95D
B9: G12-hIgG4 (antibody, V domains shown)
VH: DSLVESGGGLVQPGGSLRLSCAASGFTFDISAMSWVRQAPGKGLEWVSTISGSAYSTYYADSVKGRFTISRDNSKSTLYLQMNSLRAEDTAVYYCAREIFSDYWGLGTLVTVSS
VL: B7 VL with S51L, V53S, A59V, N61D, E84V
B10: D12-hIgG4 (antibody, V domains shown)
VH: B7 VH
VL: B7 VL with S25N, A59V, N61D
B11: OMC.1.B6-hIgG4 (antibody, V domains shown)
VH: EVQLLESGGGLVQPGGSLRLSCAASGFTFSSNYMSWVRQAPGKGLEWVSAISSSGGTIFYADSVKGRFTISRDNSKNTLYLQMNSLRAEDTAVYYCAKHKWNAVYYDGMDVWGQGTTVTVSS
VL: QSVLTQPPSASGTPGQRVTISCSGSNSNIGRNLVNWYQQLPGTAPKLLIYTIDQRPSGVPDRFSGSKSGTSASLVISGLQSEDEADYYCAAWDGSLNAWVFGGGTKLTVLG
B12: OMC.1.D6-hIgG4 (antibody, V domains shown)
VH: B11 VH with S31D, N32Y, T69I, A103D, G108A
VL: B11 VL with I52V, V75A, Q80A, G94S, A98S
B13: Abz1mod-hIgG4 (antibody, V domains shown)
VH: QVQLVQSGSELKKPGASVKVSCKASGYTFTSYAMHWVRQAPGQGLEWMGYISPFTGRATYAQGFTGRFVFSLDTSVSTAYLQISSLKAEDTAVYYCARDYDYRYYYAMDYWGQGTTVTVSS
VL: EIVLTQSPDFQSVTPKEKVTITCRASQSIPPQFLHWYQQKPDQSPKLLIKAASQRASGVPSRFSGSGSGTDFTLTINSLEAEDAATYYCHQFHSSPLTFGGGTKLEIKR
B14: 2A3.H7-hIgG4 (antibody, V domains shown)
VH: EVQLLESGGGLVQPGGSLRLSCAASGFTFKDYCMTWVRQAPGKGLEWVSAIVYSGGSTYYADSVKGRFTISRDNSKNTLYLQMNNLRAEDTAVYYCAKYTRASYFYDAMDVWGQGTTVTVSS
VL: EIVLTQSPGTLSLSPGERATLSCRASQSIGRSFLAWYQQKPGQAPRLLIYDASTRAADIPARFSGSGSGTDFTLTISSLEPEDFAVYYCQQYYDWPPLSFGGGTKVEIKR
B15: 1H9-hIgG4 (antibody, V domains shown)
VH: B14 VH with A23V, A24G, T28N, F29L, N85S, A102G
VL: B14 VL with A61D, S77N, S78R, S99T
B16: 1D5-hIgG4 (antibody, V domains shown)
VH: B14 VH with A23V, A24G, T28N, N85S, A102G
VL: B14 VL with A57T, A61D, D71E, E80Q, P81S, S99T

Each binder was assayed against T1, recombinant His-tagged human PD-1 (Acro Biosystems) (human, UniProt Q15116 25-167) (assay: SPR Carterra LSA;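 also: antibodies or fusion proteins amine-coupled on an HC30M chip, soluble His-tagged human or cynomolgus PD-1 titrated over them, non-regenerative kinetics, constants fitted from titration curves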).
T1 construct: His-tagged; also called hPD-1
T1 sequence (Q15116 25-167 limits assumed): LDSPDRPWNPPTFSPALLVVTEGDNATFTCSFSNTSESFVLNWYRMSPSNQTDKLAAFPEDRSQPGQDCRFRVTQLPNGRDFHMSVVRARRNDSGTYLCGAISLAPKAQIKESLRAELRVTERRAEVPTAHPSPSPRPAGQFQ
Method: Surface plasmon resonance binding analysis was performed using a high-throughput SPR Carterra® LSA™ to determine binding affinities of anti-hPD-1 antibodies and anti-hPD-1-attenuated hIL-2 fusion proteins. Proteins were diluted to 2 or 10 μg/mL in 10 mM sodium acetate pH 4.5 containing 0.01% Tween-20 and coupled to a HC30M (Carterra Bio) chip using sulpho-N-hydroxysuccinimide/1-ethyl-3-(3-dimethylamino) propyl carbodiimide (sulpho-NHS/EDC) coupling chemistry and blocked with ethanolamine. A non-regenerative kinetic coupling process was used to determine binding kinetics to commercially sourced recombinant His-tagged human PD-1 and His-tagged cynomolgus PD-1 (Acro Biosystems).
The association constants (kₐ), dissociation constants (kd), and equilibrium constants (KD) of various anti-hPD-1 antibodies and anti-hPD-1 antibody-attenuated hIL-2 fusion proteins binding to recombinant human or cynomolgus PD-1 proteins was determined from the titration curves and the Carterra Kinetics software. The maximal feasible SPR signal generated (Rₘₐₓ) and residual standard deviation (Res SD) was also calculated.

Kd [nM]	koff [s⁻¹]	kon [M⁻¹ s⁻¹]	Binder
12	0.00066	57000	B1
10	0.001	100000	B2
3.1	0.00082	260000	B3
5.3	0.00091	170000	B4
44	0.0041	93000	B5
64	0.0065	100000	B6
36	0.0013	37000	B7
11	0.00088	79000	B8
50	0.0026	53000	B9
8.1	0.00046	57000	B10
52	0.004	77000	B11
42	0.0017	41000	B12
0.426	6e-05	140000	B13

What follows are binders tested against T2, recombinant His-tagged cynomolgus PD-1 (Acro Biosystems) (cynomolgus, UniProt B0LAJ3 25-170) (assay: SPR Carterra LSA;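 also: antibodies or fusion proteins amine-coupled on an HC30M chip, soluble His-tagged human or cynomolgus PD-1 titrated over them, non-regenerative kinetics, constants fitted from titration curves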).
T2 construct: His-tagged; also called Cyno PD-1; not shown: His tag (and any linker) of the Acro Biosystems product
T2 sequence (B0LAJ3 entry or part of it limits assumed): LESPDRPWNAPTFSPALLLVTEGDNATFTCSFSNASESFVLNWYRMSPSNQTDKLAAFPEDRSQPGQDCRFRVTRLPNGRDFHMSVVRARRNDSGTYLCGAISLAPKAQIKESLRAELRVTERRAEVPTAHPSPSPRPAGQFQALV

Kd [nM]	koff [s⁻¹]	kon [M⁻¹ s⁻¹]	Binder
13	0.00074	55000	B1
1200	0.05	41000	B2
7.1	0.001	140000	B3
12	0.0011	91000	B4
487	0.06	120000	B5
480	0.059	120000	B6
589	0.04	68000	B7
331	0.035	100000	B8
754	0.065	86000	B9
272	0.016	59000	B10
51	0.0044	88000	B11
694	0.04	58000	B12
3.7	0.00062	170000	B13

What follows are binders tested against human PD-1 on Jurkat Effector cells of the PD-1/PD-L1 blockade bioassay (Promega, Cat #J1255) (human, UniProt Q15116 25-288) (assay: cell-based or functional assay).
Sequence of human PD-1 on Jurkat Effector cells of the PD-1/PD-L1 blockade bioassay (Promega, Cat #J1255) (Q15116 25-288): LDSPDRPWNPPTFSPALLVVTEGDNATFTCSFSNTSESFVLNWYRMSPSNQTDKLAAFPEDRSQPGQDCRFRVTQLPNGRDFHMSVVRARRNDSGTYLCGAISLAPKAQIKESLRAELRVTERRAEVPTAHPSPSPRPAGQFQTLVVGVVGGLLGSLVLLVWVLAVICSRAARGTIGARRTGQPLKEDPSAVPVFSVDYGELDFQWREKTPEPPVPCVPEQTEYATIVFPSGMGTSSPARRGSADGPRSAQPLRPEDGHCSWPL

luminescence (RLU), PD-1/PD-L1 blockade bioassay [RLU]	Binder
~3000	B14
~3000	B15
~3000	B16
